B1: H1.204_L1.1 (XENP32820) (antibody, human IgG1, kappa, V domains shown)
VH: EVQLVESGGGLVQPGGSLRLSCAASGFTFSSFGMHWVRQAPGKGLEWVSYISSGSSIIYYADSVKGRFTISRDNAKNSLYLQMNSLRAEDTAVYYCARGGQQVFAPDYWGQGTLVTVSS
VL: DIVMTQSPDSLAVSLGERATINCKSSQSLLHSGNQKNYLTWYQQKPGQPPKLLIYWASTRESGVPDRFTGSGSGTDFTLTISSLQAEDVAVYYCQNDYSYPFTFGSGTKLEIKR
notes: VH substitution R109Q/L110Q/W112F/S113A (Xencor #); R97Q/L98Q/W100F/S100aA (Kabat); also called mAb C[PD1]_H1.204_L1.1_IgG1_PVA_/S267K
B2: H1.212_L1.1 (XENP32828) (antibody, human IgG1, kappa, V domains shown)
VH: B1 VH with Q101T, Q102K, A105S
VL: B1 VL
notes: VH substitution R109T/L110K/W112F (Xencor #); R97T/L98K/W100F (Kabat); also called mAb C[PD1]_H1.212_L1.1_IgG1_PVA_/S267K
B3: H1.209_L1.1 (XENP32825) (antibody, human IgG1, kappa, V domains shown)
VH: B1 VH with Q101R, Q102F, A105S
VL: B1 VL
notes: VH substitution L110F/W112F (Xencor #); L98F/W100F (Kabat); also called mAb C[PD1]_H1.209_L1.1_IgG1_PVA_/S267K
B4: H1.196_L1.1 (XENP32812) (antibody, human IgG1, kappa, V domains shown)
VH: B1 VH with Q101R, Q102L, V103F, A105S
VL: B1 VL
notes: VH substitution V111F/W112F (Xencor #); V99F/W100F (Kabat); also called mAb C[PD1]_H1.196_L1.1_IgG1_PVA_/S267K
B5: H1.206_L1.1 (XENP32822) (antibody, human IgG1, kappa, V domains shown)
VH: B1 VH with Q101R, Q102L, F104L, A105S
VL: B1 VL
notes: VH substitution W112L (Xencor #) but W100F in the Kabat column: the two columns disagree; also called mAb C[PD1]_H1.206_L1.1_IgG1_PVA_/S267K
B6: H1.194_L1.1 (XENP32810) (antibody, human IgG1, kappa, V domains shown)
VH: B1 VH with Q102L, A105S
VL: B1 VL
notes: VH substitution R109Q/W112F (Xencor #); R97Q/W100F (Kabat); also called mAb C[PD1]_H1.194_L1.1_IgG1_PVA_/S267K
B7: H1.200_L1.1 (XENP32816) (antibody, human IgG1, kappa, V domains shown)
VH: B1 VH with G100H, Q101R, Q102V, A105S
VL: B1 VL
notes: VH substitution G108H/L110V/W112F (Xencor #); G96H/L98V/W100F (Kabat); also called mAb C[PD1]_H1.200_L1.1_IgG1_PVA_/S267K
B8: H1.178_L1.140 (XENP32424) (antibody, V domains shown)
VH: B1 VH with F32L, S53G, Q101F, Q102L, A105S
VL: B1 VL with K36Y, S99T
notes: VH-F34L/S55G/R109F/W112F, VL-N31H/K36Y/S99T (Xencor #); Kabat positions VH-32/52A/97/100, VL-27D/30/93; also called mAb C[PD-1]_H1.178_L1.140; copies: 2 + 2
B9: H1.183_L1.140 (XENP32429) (antibody, V domains shown)
VH: B1 VH with F32L, S53G, Q101V, Q102L, A105S
VL: B1 VL with K36Y, S99T
notes: VH-F34L/S55G/R109V/W112F, VL-N31H/K36Y/S99T (Xencor #); Kabat positions VH-32/52A/97/100, VL-27D/30/93; also called mAb C[PD-1]_H1.183_L1.140; copies: 2 + 2
B10: H1.179_L1.140 (XENP32425) (antibody, V domains shown)
VH: B1 VH with F32L, S53G, Q101Y, Q102L, A105S
VL: B1 VL with K36Y, S99T
notes: VH-F34L/S55G/R109Y/W112F, VL-N31H/K36Y/S99T (Xencor #); Kabat positions VH-32/52A/97/100, VL-27D/30/93; also called mAb C[PD-1]_H1.179_L1.140; copies: 2 + 2
B11: H1.186_L1.140 (XENP32432) (antibody, V domains shown)
VH: B1 VH with F32L, S53G, Q101A, Q102L, A105S
VL: B1 VL with K36Y, S99T
notes: VH-F34L/S55G/R109A/W112F, VL-N31H/K36Y/S99T (Xencor #); Kabat positions VH-32/52A/97/100, VL-27D/30/93; also called mAb C[PD-1]_H1.186_L1.140; copies: 2 + 2
B12: H1.182_L1.140 (XENP32428) (antibody, V domains shown)
VH: B1 VH with F32L, S53G, Q101L, Q102L, A105S
VL: B1 VL with K36Y, S99T
notes: VH-F34L/S55G/R109L/W112F, VL-N31H/K36Y/S99T (Xencor #); Kabat positions VH-32/52A/97/100, VL-27D/30/93; also called mAb C[PD-1]_H1.182_L1.140; copies: 2 + 2
B13: H1.185_L1.140 (XENP32431) (antibody, V domains shown)
VH: B1 VH with F32L, S53G, Q101H, Q102L, A105S
VL: B1 VL with K36Y, S99T
notes: VH-F34L/S55G/R109H/W112F, VL-N31H/K36Y/S99T (Xencor #); Kabat positions VH-32/52A/97/100, VL-27D/30/93; also called mAb C[PD-1]_H1.185_L1.140; copies: 2 + 2
B14: H1.181_L1.140 (XENP32427) (antibody, V domains shown)
VH: B1 VH with F32L, S53G, Q102L, A105S
VL: B1 VL with K36Y, S99T
notes: VH-F34L/S55G/R109Q/W112F, VL-N31H/K36Y/S99T (Xencor #); Kabat positions VH-32/52A/97/100, VL-27D/30/93; also called mAb C[PD-1]_H1.181_L1.140; copies: 2 + 2
B15: H1.184_L1.140 (XENP32430) (antibody, V domains shown)
VH: B1 VH with F32L, S53G, Q101D, Q102L, A105S
VL: B1 VL with K36Y, S99T
notes: VH-F34L/S55G/R109D/W112F, VL-N31H/K36Y/S99T (Xencor #); Kabat positions VH-32/52A/97/100, VL-27D/30/93; also called mAb C[PD-1]_H1.184_L1.140; copies: 2 + 2
B16: H1.187_L1.140 (XENP32433) (antibody, V domains shown)
VH: B1 VH with F32L, S53G, Q101W, Q102L, A105S
VL: B1 VL with K36Y, S99T
notes: VH-F34L/S55G/R109W/W112F, VL-N31H/K36Y/S99T (Xencor #); Kabat positions VH-32/52A/97/100, VL-27D/30/93; also called mAb C[PD-1]_H1.187_L1.140

Positions count from the first letter of the chain named. Names may count otherwise.

T1 sequence (Q15116 25-167 limits assumed): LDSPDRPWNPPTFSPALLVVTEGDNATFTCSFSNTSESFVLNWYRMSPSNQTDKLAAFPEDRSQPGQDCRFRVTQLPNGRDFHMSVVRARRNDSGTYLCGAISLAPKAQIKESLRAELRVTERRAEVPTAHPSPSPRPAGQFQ

One experiment addresses T1, human PD-1-His (human, UniProt Q15116 25-167, limits assumed).
T1 construct: Antigen of the Octet assays; not shown: His tag
The experiment in a line: Octet (BLI), AHC capture of the bivalent mAb, PD-1 in solution. Background: BLI is a label-free optical method that tracks binding on a fibre tip over time.
With B1, the koff came out at 0.00404 s⁻¹ and the kon stood at 154000 M⁻¹ s⁻¹.

B2 returned a koff of 0.00469 s⁻¹ and a kon of 152000 M⁻¹ s⁻¹.

In turn, B3 gave a koff of 0.00489 s⁻¹ and a kon of 173000 M⁻¹ s⁻¹.

Turning to B4, the koff amounted to 0.00475 s⁻¹ and the on-rate constant (kon) was 106000 M⁻¹ s⁻¹.

With B5, the koff turned out to be 0.00505 s⁻¹ and the kon came to 148000 M⁻¹ s⁻¹.

B6 returned a koff of 0.00395 s⁻¹ and a kon of 166000 M⁻¹ s⁻¹.

As to B7, the koff is 0.00672 s⁻¹ and the kon turned out to be 336000 M⁻¹ s⁻¹.

The target in the next experiment is T1, human PD-1-His. The experiment in a line: Octet (BLI), bivalent IgG1 mAb; legend calls the constant apparent (KDapp).
Take B8: the Kd was 0.986 nM.

As to B9, the Kd came to 0.952 nM.

For B10, the Kd is 0.864 nM.

As to B11, the Kd came out at 0.945 nM.

For the molecule B12, the Kd stood at 0.943 nM.

As to B13, the Kd stood at 1.06 nM.

For B14, the Kd was 0.905 nM.

With B15, the Kd is 0.798 nM.

As to B16, the Kd was found to be 1.03 nM.

Another experiment addresses T1, human PD-1-His. Put plainly: Octet (BLI), AHC biosensors capture the bivalent mAb, dipped into multiple concentrations of PD-1; KDapp per legend.
In turn, B1 yielded a Kd of 26.2 nM.

As for B2, the Kd is 30.8 nM.

As for B3, the Kd came out at 28.2 nM.

The molecule B4 displayed a Kd of 44.8 nM.

B5 yielded a Kd of 34.2 nM.

Molecule B6 displayed a Kd of 23.7 nM.

Molecule B7 returned a Kd of 20 nM.

For another experiment, the target named is T1, human PD-1-His. The experiment in a line: Octet (BLI), bivalent IgG1 mAb.
Take B8: the koff is 0.000182 s⁻¹ and the kon amounted to 184000 M⁻¹ s⁻¹.

On to B9, for which the koff worked out at 0.000178 s⁻¹ and the kon turned out to be 187000 M⁻¹ s⁻¹.

B10 gave a koff of 0.00017 s⁻¹ and a kon of 197000 M⁻¹ s⁻¹.

The molecule B11 showed a koff of 0.000179 s⁻¹ and a kon of 189000 M⁻¹ s⁻¹.

Regarding B12, the koff came to 0.000176 s⁻¹ and the kon worked out at 187000 M⁻¹ s⁻¹.

Regarding B13, the koff is 0.000169 s⁻¹ and the kon was 160000 M⁻¹ s⁻¹.

B14 showed a koff of 0.000173 s⁻¹ and a kon of 191000 M⁻¹ s⁻¹.

B15 came in with a koff of 0.000188 s⁻¹ and a kon of 236000 M⁻¹ s⁻¹.

B16 showed a koff of 0.000198 s⁻¹ and a kon of 193000 M⁻¹ s⁻¹.

What is called koff is a measure of how fast the partners let go of each other. A higher koff goes with a short-lived complex. A word on the kon: it is the second-order rate constant of association. A higher kon goes with fast association.
